Patent US20240083948

Experiments:
[1] = target: AKT1 mutant with a deletion in the PH domain, active (UniProt P31749)
AKT1 (PKB alpha), active = AKT1 (PKB alpha), active (UniProt P31749)
[2] = target: AKT1 Ser473Asp mutant, active (UniProt P31749)
[3] = test system: PKAc, full-length, active (catalytic subunit of Protein Kinase A)
[4] = test system: T1, adjacent peptide Gly-Phe-Ala-Lys-Arg-Val-Lys-Gly-Arg-Thr-Trp-Thr-Leu
T1 sequence: GFAKRVKGRTWTL

[5] = test system: T2, ZaTa peptide (Ala-Lys-Arg-Val-Lys-Gly-Arg-Thr-Trp-Thr-Leu-Cys-Gly-Thr-Pro-Glu-Tyr)
T2 sequence: AKRVKGRTWTLCGTPEY

Chain of AKT1 (PKB alpha), active (P31749 whole entry, looked up): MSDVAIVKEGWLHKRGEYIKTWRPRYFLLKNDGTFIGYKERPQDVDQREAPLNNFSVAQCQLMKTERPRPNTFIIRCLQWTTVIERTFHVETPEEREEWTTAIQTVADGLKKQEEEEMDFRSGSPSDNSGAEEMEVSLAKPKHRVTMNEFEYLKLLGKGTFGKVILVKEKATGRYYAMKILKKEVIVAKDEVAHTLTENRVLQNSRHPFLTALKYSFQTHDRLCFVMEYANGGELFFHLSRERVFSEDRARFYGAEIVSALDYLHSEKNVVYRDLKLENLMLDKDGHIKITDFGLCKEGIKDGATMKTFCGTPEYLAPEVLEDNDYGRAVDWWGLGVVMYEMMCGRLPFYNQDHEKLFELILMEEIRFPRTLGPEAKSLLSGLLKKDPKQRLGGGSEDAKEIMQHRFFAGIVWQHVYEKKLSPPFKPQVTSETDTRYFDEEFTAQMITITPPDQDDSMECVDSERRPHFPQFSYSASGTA
Chain of AKT1 Ser473Asp mutant, active (P31749 whole entry S473D): as the sequence (P31749 whole entry, looked up) above, with S473D counted along it
Chain of AKT1 mutant with a deletion in the PH domain, active (P31749 whole entry, looked up, stated change not applied, the tested form may be a part): as the sequence (P31749 whole entry, looked up) above

Substance: PKAc, full-length, active (catalytic subunit of Protein Kinase A)
- AKT kinase assay, catalytic activity of the AKT1 mutant [1]: The decrease in the catalytic activity of AKT by PKAc was also observed with two mutants and active forms of AKT1, one with a deletion in the PH domain
- AKT kinase assay, Ser-9 GSK-3 GST fusion protein as substrate (AKT1 (PKB alpha), active): the kinetic activity of AKT was dramatically reduced
- AKT kinase assay, catalytic activity of the AKT1 mutant [2]: The decrease in the catalytic activity of AKT by PKAc was also observed with two mutants and active forms of AKT1 ... the other one with a Ser473Asp mutation

Substance: active PKAc purified from bovine tissue
- AKT kinase assay, catalytic activity of AKT (AKT1 (PKB alpha), active): the same inhibitory effect was observed with active PKAc purified from bovine tissue

Substance: AKT1 (PKB alpha), active
- PKA kinase assay, phosphorylation level of DARPP-32 at Thr-34 [3]: addition of the active AKT to the PKA kinase assay increased the catalytic activity of PKAc
- phosphorylation level of PKAc at Thr-197 [3]: the increase in the PKAc catalytic activity was accompanied by an increase in the phosphorylation level of PKAc at Thr-197
- AKT1 in vitro catalytic activity (incorporation of γ-32P into Ser-21 GSK-3β substrate peptide) [4]: the adjacent overlapping peptide was not able to inhibit AKT1
- AKT1 kinase assay, phosphorylation level of Ser-9 GSK-3 GST substrate (western blot) [5]: The phosphorylation level of Ser-9 GSK-3 GST substrate was significantly reduced after adding the ZaTa peptide to the AKT1 kinase assay
- control kinase reactions that contained the peptide and AKT only [5]: ZaTa peptide itself was not a substrate for AKT

Substance: human PKAc expressed in Sf9 cells
- AKT kinase assay, catalytic activity of AKT (AKT1 (PKB alpha), active): the same inhibitory effect was observed ... with human PKAc expressed in Sf9 cells
